Assay results as given in publication doi:10.1101/2021.01.06.425396.

Target: T1, tetherin (Bst2), endogenous (human (endogenous in HeLa)), Q10589
T1 chain: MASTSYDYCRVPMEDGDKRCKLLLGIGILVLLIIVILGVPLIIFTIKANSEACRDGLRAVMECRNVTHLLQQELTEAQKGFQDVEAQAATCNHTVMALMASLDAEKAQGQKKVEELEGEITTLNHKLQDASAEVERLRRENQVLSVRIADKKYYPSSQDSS
Experiment: non-reducing SDS-PAGE and Western blot
Details: remark: other sources report otherwise

B1: tetherin (Bst2), endogenous, Q10589 1-161 (natural protein)
chain: MASTSYDYCRVPMEDGDKRCKLLLGIGILVLLIIVILGVPLIIFTIKANSEACRDGLRAVMECRNVTHLLQQELTEAQKGFQDVEAQAATCNHTVMALMASLDAEKAQGQKKVEELEGEITTLNHKLQDASAEVERLRRENQVLSVRIADKKYYPSSQDSS
- stoichiometry N: 2
